± gives the uncertainty stated by the source.
Test: self-splicing fitness, log relative to wild type (ln ratio); higher = more splicing; Tetrahymena group I intron in knt gene, E. coli kanamycin selection, DiMSum; sequences stand for … in CUCUCU…GGAGGGAAAAGUUAUCAGGCAUGCACCUGGUAGCUAGUCUUUAAACCAAUAGAUUGCAUCGGUUUAAAAGGCAAGACCGUCAAAUUGCGGGAAAGGGGUCAACAGCCGUUCAGUACCAAGUCUCAGGGGAAACUUUGAGAUGGCCUUGCAAAGGGUAUGGUAAUAAGCUGACGGACAUGGUCCUAACCACGCAGCCAAGUCCUAAGUCAACAGAUCUUCUGUUGAUAUGGAUGCAGUUCACAGACUAAAUGUCGGUCGGGGAAGAUGUAUUCUUCUCAUAAGAUAUAGUCGGACCUCUCCUUAAUGGGAGCUAGCGGAUGAAGUGAUGCAACACUGGAGCCGCUGGGAACUAAUUUGUAUGCGAAAGUAUAUUGAUUAGUUUUGGAGUACUCGUGGUCG
In short: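 Six replicate transformations of E. coli BL21(DE3) with a pET-22b(+) library were grown overnight at 37°C or 30°C. The library randomised all eight P1ex-region intron nucleotides, the intron lying in the knt kanamycin-resistance gene, and plates were LB agar with or without 25 μg/mL kanamycin plus 100 μg/mL carbenicillin, 50 μM IPTG and 0.2% rhamnose. Pooled colonies were amplicon-sequenced on an Illumina HiSeq 2500, and fitness is the DiMSum error-weighted combination of wild-type-normalised replicate fold changes, kanamycin versus none.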

Sequence | self-splicing fitness (ln) (30 °C) | self-splicing fitness (ln) (37 °C)
AUACAGCAAUAUUACGCCUG | -1.94 ± 0.12 | 0.29 ± 0.13
CGAGAGCAAUAUUACGCUAG | – | -2.77 ± 0.4
UCCUAGCAAUAUUACGGCGC | -2.21 ± 0.24 | -1.69 ± 0.23
CAGAAGCAAUAUUACGCGUU | -3.09 ± 0.17 | -3.61 ± 0.29
GCCGAGCAAUAUUACGUCUU | -2.71 ± 0.16 | -1.82 ± 0.14
GGUAAGCAAUAUUACGAUUG | -3.48 ± 0.48 | -3.44 ± 0.39
UACUAGCAAUAUUACGGUAA | -2.33 ± 0.14 | -1.01 ± 0.12
ACGUAGCAAUAUUACGCGUU | – | -2.49 ± 0.24
AGCAAGCAAUAUUACGGACU | -0.137 ± 0.084 | -0.455 ± 0.094
GAAAAGCAAUAUUACGUGAU | -2.38 ± 0.087 | -1.9 ± 0.11
GAACAGCAAUAUUACGGUGC | -1.38 ± 0.074 | -1.22 ± 0.086
UUACAGCAAUAUUACGGCGA | -0.0852 ± 0.081 | 0.489 ± 0.11
UCUGAGCAAUAUUACGUAUA | -2.36 ± 0.17 | -2.39 ± 0.18
AGACAGCAAUAUUACGCUAG | -4.3 ± 0.3 | -2.81 ± 0.22
ACCGAGCAAUAUUACGCACC | -2.84 ± 0.22 | -1.08 ± 0.21
CUUGAGCAAUAUUACGGACA | -2.41 ± 0.37 | –
ACAAAGCAAUAUUACGAAGA | -3.03 ± 0.42 | -0.86 ± 0.18
CUUCAGCAAUAUUACGCAUC | -2.85 ± 0.22 | -2.68 ± 0.22
UUACAGCAAUAUUACGGUAG | -1.92 ± 0.12 | -0.729 ± 0.13
GGCCAGCAAUAUUACGCCGG | -3.21 ± 0.17 | -1.99 ± 0.23
AUCAAGCAAUAUUACGGACU | -0.672 ± 0.076 | 0.456 ± 0.096
CGGGAGCAAUAUUACGCAUA | -2.61 ± 0.37 | -1.96 ± 0.35
ACCAAGCAAUAUUACGACUC | -1.56 ± 0.17 | -0.459 ± 0.2
CGUGAGCAAUAUUACGAUGG | -0.492 ± 0.1 | -0.139 ± 0.13
GAGUAGCAAUAUUACGGUUG | -2.7 ± 0.2 | -1.06 ± 0.2
CGGGAGCAAUAUUACGCUGG | -4.21 ± 0.42 | -2 ± 0.3
GAAUAGCAAUAUUACGCUAA | -2.59 ± 0.25 | -1.05 ± 0.25

Sequence | self-splicing fitness (ln) (30 °C) | self-splicing fitness (ln) (37 °C)
UUGCAGCAAUAUUACGAGCA | -2.35 ± 0.17 | -0.7 ± 0.11
CGACAGCAAUAUUACGACGU | -1.07 ± 0.07 | 0.0477 ± 0.086
UGAUAGCAAUAUUACGAACU | -1.03 ± 0.12 | 0.402 ± 0.11
GGGCAGCAAUAUUACGUGAC | -0.997 ± 0.13 | -1.03 ± 0.21
AUGCAGCAAUAUUACGCUUG | -3.06 ± 0.12 | -2.85 ± 0.18
AAUAAGCAAUAUUACGAUUG | -2.35 ± 0.18 | -1.91 ± 0.23
UAUCAGCAAUAUUACGAUUA | 0.023 ± 0.072 | 0.233 ± 0.087
GCAUAGCAAUAUUACGUGCC | -3.42 ± 0.21 | -1.03 ± 0.29
UAAGAGCAAUAUUACGCGGU | -3.3 ± 0.3 | -2.15 ± 0.34
GUUGAGCAAUAUUACGAAGA | – | -2.71 ± 0.48
UUAUAGCAAUAUUACGCUUA | -1.92 ± 0.33 | -1.09 ± 0.26
AUACAGCAAUAUUACGCUGC | -2.38 ± 0.18 | -3.02 ± 0.29
AAGCAGCAAUAUUACGUAAU | -1.49 ± 0.068 | -0.923 ± 0.094
AGUCAGCAAUAUUACGUCUA | -0.83 ± 0.072 | -0.792 ± 0.071
ACACAGCAAUAUUACGUGCA | -0.241 ± 0.051 | -0.395 ± 0.063
AGUCAGCAAUAUUACGCGCC | -0.491 ± 0.1 | -0.228 ± 0.11
CGUCAGCAAUAUUACGAGGC | -4.66 ± 0.36 | -3.2 ± 0.47
UGAUAGCAAUAUUACGGCAC | -2.97 ± 0.33 | -1.51 ± 0.43
CUCGAGCAAUAUUACGGUAU | -2.54 ± 0.14 | -2.62 ± 0.21
UACGAGCAAUAUUACGGCAU | -3.45 ± 0.23 | -1.25 ± 0.15
CCUCAGCAAUAUUACGGAGU | -2.26 ± 0.089 | -1.03 ± 0.09
UUUGAGCAAUAUUACGCCGG | -2.04 ± 0.35 | 0.228 ± 0.38
GGUCAGCAAUAUUACGCCCU | -0.704 ± 0.14 | 0.198 ± 0.17
AUUGAGCAAUAUUACGAUCA | -1.91 ± 0.16 | -2.07 ± 0.17
CGCAAGCAAUAUUACGAAGA | -2.75 ± 0.21 | -1.73 ± 0.17
GAGUAGCAAUAUUACGCCAU | -2.49 ± 0.19 | -2.33 ± 0.31
AUUUAGCAAUAUUACGUCUG | -1.73 ± 0.11 | -1.15 ± 0.11

Sequence | self-splicing fitness (ln) (30 °C) | self-splicing fitness (ln) (37 °C)
CGACAGCAAUAUUACGAUUU | -2.34 ± 0.075 | -1.26 ± 0.087
ACCCAGCAAUAUUACGCAGC | -1.41 ± 0.068 | -0.445 ± 0.068
GGGAAGCAAUAUUACGUUAG | -2.72 ± 0.27 | -0.794 ± 0.24
GUGCAGCAAUAUUACGUGAA | -0.187 ± 0.1 | -1.19 ± 0.14
UAGGAGCAAUAUUACGCGGG | – | -1.24 ± 0.21
ACCUAGCAAUAUUACGGUUG | -3.37 ± 0.13 | -2.71 ± 0.17
GCGUAGCAAUAUUACGUAAU | – | -0.693 ± 0.32
CUGGAGCAAUAUUACGCGCU | -3.54 ± 0.47 | –
CAUUAGCAAUAUUACGUUCG | 0.151 ± 0.084 | 0.359 ± 0.093
UAAUAGCAAUAUUACGGGAU | -4.36 ± 0.46 | -2.49 ± 0.22
GGAAAGCAAUAUUACGUAAC | -1.42 ± 0.12 | -1.42 ± 0.16
AGUCAGCAAUAUUACGGCCG | -1.28 ± 0.11 | -0.527 ± 0.085
CCUGAGCAAUAUUACGGCCG | – | -2.21 ± 0.4
UUGUAGCAAUAUUACGUUGC | – | -2.29 ± 0.46
CCUAAGCAAUAUUACGAGCU | -2.2 ± 0.33 | -1.93 ± 0.27
UAUCAGCAAUAUUACGGAAC | -1.44 ± 0.21 | –
UAAUAGCAAUAUUACGGUCG | -0.872 ± 0.1 | 0.313 ± 0.11
CCACAGCAAUAUUACGUUAU | -4.08 ± 0.15 | -2.66 ± 0.16
GUACAGCAAUAUUACGAGUG | -3.17 ± 0.34 | -1.25 ± 0.18
GGAGAGCAAUAUUACGCCAA | -2.04 ± 0.24 | –
GUUGAGCAAUAUUACGGCGG | – | -2.66 ± 0.36
CGGCAGCAAUAUUACGUGCG | -3 ± 0.16 | -2.54 ± 0.16
GCACAGCAAUAUUACGGCUU | -0.432 ± 0.054 | -0.0629 ± 0.064
CGUAAGCAAUAUUACGAAAG | -1.98 ± 0.13 | -0.821 ± 0.12
AUAUAGCAAUAUUACGGGGC | -3.4 ± 0.43 | -2.48 ± 0.32
UUCCAGCAAUAUUACGGCAC | -2.78 ± 0.21 | -0.351 ± 0.2

— the supplement of paper PMC7877785
